Columns and labels:
[1] = target: T1, fluorescein-labeled Hsp90 peptide (fluorescein label (position not given)); assay: fluorescence anisotropy; protein titrated into 50 nM fluorescein-labeled Hsp90 peptide
T1 construct: also called target peptide; C-terminal peptide of Hsp90
T1 peptide: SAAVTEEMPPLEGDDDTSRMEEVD
Experimental: (§1) In addition, the ligand binding activity of the tested proteins was studied by using CC1-CTPR390, CC1-TPR2A, CC1-TPR2A_T332R_D334K proteins and its target peptide. […] Fluorescence intensities were recorded in a Perkin Elmer Fluorimeter equipped with excitation and emission polarizers. Excitation was accomplished with a 5 nm slit width at 492 nm and the emission recorded at 516 nm with slit width of 5 nm. […]

[2] = target: T1, fluorescein-labeled Hsp90 peptide; assay: fluorescence anisotropy with fluorescein-labeled Hsp90 peptide; protein-stabilised gold nanocluster complex
Experimental: as §1
Finally, fluorescence anisotropy was used to monitor the interaction between the CC1-CTPR390-AuNCs, CC1-TPR2A-AuNCs and CC1-TPR2A_T332R_D334K-AuNCs complexes and a fluorescein-labeled Hsp90 peptide to determine the corresponding Kd value.

B1: CC1-CTPR390 (designed binder)
chain: AEAWCNLGCAYYKQGDYDEAIEYYQKALELDPRSACAWYCLGNAYYKQGDYDEAIEYYQKALELDPRSAEAWKNLGNAYYKQGDYQKAIEYYQKALELDPNNASAWYNLGNAYYKQGDYQKAIEYYQKALELDPNNAKAWYRRGNAYYKQGDYQKAIEDYQKALELDPNNAKAKQNLGNAKQKQG
notes: CC1 Cys-clamp module (modules C and C1 fused) joined to the Hsp90 recognition domain CTPR390; Expressed in E. coli and the His tag was cleaved with TEV
Work on B1 yielded a Kd [1] of 110 µM.

B2: CC1-CTPR390-AuNCs (designed binder)
chain: B1 chain
modifications: gold nanocluster (AuNC) stabilised on the protein (CC1 4-Cys clamp)
notes: also called CC1-CTPR390-AuNCs complex
B2 gave a Kd [2] of roughly 110 µM.

Reference: US20210002330A1 (ASOCIACI N CENTRO DE INVESTIGACI N COOPERATIVA EN …, published 2021)
